Literature values as cited in PMC8695629.

Key:
[1] = biological target: DOT1L 10-mer peptide (Homo sapiens) (UniProt Q8TEK3)
[2] = biological target: CBX8 (Homo sapiens) (UniProt Q9HC52)
[3] = biological target: BCOR (Homo sapiens) (UniProt Q6W2J9)
[4] = biological target: DOT1L 7-mer peptide (Homo sapiens) (UniProt Q8TEK3); assay: fluorescence polarization

Chain of UniProt Q9HC52 (Q9HC52 whole entry A335V): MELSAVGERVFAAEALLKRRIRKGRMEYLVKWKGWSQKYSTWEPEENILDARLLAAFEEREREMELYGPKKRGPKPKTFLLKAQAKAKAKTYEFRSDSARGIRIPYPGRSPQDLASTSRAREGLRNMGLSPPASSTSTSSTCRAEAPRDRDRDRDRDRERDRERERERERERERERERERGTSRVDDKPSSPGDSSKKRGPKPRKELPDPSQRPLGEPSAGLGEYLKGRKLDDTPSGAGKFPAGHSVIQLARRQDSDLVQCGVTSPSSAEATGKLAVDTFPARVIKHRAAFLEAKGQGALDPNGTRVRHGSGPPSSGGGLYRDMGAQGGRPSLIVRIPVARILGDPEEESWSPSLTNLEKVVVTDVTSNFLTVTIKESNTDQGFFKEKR
Chain of UniProt Q6W2J9 (Q6W2J9 whole entry): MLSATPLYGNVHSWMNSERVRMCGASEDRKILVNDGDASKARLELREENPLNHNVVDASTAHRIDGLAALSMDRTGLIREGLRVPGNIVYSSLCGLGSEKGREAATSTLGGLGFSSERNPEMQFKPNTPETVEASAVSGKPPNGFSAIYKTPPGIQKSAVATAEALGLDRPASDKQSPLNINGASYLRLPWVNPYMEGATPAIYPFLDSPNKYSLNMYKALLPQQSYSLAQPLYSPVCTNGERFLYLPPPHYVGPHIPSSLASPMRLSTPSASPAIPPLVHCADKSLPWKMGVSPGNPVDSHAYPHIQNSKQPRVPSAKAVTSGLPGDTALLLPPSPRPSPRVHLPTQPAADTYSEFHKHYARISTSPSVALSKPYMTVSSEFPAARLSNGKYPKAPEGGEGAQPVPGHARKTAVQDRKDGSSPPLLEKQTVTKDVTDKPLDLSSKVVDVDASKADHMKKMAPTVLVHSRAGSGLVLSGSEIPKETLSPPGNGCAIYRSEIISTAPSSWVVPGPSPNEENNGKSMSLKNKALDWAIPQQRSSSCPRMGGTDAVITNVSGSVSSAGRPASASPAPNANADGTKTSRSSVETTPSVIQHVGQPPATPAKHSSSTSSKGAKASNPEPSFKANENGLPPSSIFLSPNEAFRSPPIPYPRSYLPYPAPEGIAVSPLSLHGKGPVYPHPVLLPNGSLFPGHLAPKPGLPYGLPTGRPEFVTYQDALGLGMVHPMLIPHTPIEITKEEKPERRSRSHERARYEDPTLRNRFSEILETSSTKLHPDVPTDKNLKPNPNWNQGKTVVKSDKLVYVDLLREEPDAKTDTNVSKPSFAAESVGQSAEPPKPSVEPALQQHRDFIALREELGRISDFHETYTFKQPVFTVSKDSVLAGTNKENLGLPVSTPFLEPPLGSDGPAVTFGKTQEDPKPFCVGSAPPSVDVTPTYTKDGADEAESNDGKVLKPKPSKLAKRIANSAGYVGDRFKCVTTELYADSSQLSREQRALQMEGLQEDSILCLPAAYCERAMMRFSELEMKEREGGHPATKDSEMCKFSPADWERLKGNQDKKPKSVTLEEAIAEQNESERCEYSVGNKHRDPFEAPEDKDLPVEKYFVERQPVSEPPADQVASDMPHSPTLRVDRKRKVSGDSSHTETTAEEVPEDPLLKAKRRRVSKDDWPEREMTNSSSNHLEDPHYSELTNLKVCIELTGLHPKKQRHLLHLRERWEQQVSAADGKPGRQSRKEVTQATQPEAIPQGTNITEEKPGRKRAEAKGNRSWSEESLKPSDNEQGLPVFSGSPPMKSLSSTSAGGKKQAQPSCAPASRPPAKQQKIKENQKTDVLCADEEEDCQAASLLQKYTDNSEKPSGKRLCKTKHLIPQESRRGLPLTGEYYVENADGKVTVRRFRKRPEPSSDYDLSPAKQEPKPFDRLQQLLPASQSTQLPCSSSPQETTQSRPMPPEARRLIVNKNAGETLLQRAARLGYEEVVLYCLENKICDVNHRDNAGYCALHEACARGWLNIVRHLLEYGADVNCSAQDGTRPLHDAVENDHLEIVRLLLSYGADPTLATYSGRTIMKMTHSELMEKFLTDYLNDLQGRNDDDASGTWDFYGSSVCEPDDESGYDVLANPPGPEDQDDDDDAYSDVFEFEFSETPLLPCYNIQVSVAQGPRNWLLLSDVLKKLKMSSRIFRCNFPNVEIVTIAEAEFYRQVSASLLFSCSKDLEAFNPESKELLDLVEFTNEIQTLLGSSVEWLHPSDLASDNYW

## MLLT3 (AF9) AHD (from UniProt P42568)
[1]
  Kd: 19 nM
[2]
  Kd: 12 nM
[3]
  Kd: > 3000 nM
[4]
  Ki: 160 nM
